Reference: patent US20160024208A1 (Regeneron, published 2016)

T1: N-Term Biotin Nav1.7 (3-1) peptide, mouse (mouse, not fully specified; N-terminal biotin attached via a G4S linker)
T1 construct: Synthetic peptide; also called Mouse Nav1.7 3-1 N-term biotin
T1 peptide: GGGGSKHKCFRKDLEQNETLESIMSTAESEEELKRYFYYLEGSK

T2: Native Nav1.7 (3-1) peptide, rat (rat)
T2 construct: Synthetic peptide; also called Rat Nav1.7 3-1 native
T2 peptide: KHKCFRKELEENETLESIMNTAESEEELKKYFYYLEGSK

T3: C-term Biotin Nav1.7 (3-1) peptide, human (human, not fully specified; C-terminal biotin attached via a G4S linker)
T3 construct: Synthetic peptide; also called Human Nav1.7 3-1 C-term biotin
T3 peptide: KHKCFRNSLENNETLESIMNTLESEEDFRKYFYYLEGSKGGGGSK

T4: N-Term Biotin-Nav1.7 (3-1) peptide, human (human, not fully specified; N-terminal biotin attached via a G4S linker)
T4 construct: ELISA peptide
T4 peptide: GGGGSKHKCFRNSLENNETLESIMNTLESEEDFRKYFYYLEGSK

T5: N-Term Biotin Nav1.7 (3-1) peptide, mulatta (mulatta (monkey), not fully specified; N-terminal biotin attached via a G4S linker)
T5 construct: Synthetic peptide; also called Mulatta Nav1.7 3-1 N-term biotin; monkey
T5 peptide: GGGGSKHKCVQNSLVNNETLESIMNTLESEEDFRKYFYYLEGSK

T6: Native Nav1.7 (3-1) peptide, human (human)
T6 construct: Synthetic peptide (Celtek), unbiotinylated; also called Human Nav1.7 3-1 native; Nav1.7 3-1 native peptide
T6 peptide: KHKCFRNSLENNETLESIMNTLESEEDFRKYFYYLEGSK

T7: C-term Biotin Nav1.7 (3-3) peptide, human (human, C-terminal biotin attached via a G4S linker)
T7 construct: Synthetic peptide; also called Human Nav1.7 3-3 C-term biotin
T7 peptide: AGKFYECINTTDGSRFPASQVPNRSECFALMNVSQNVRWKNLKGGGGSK

T8: C-Term Biotin Nav1.7 (3-3) peptide, mouse (mouse, C-terminal biotin attached via a G4S linker)
T8 construct: Synthetic peptide; also called Mouse Nav1.7 3-3 C-term biotin
T8 peptide: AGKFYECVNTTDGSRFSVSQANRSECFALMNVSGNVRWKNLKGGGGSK

T9: C-Term Biotin Nav1.7 (3-3) peptide, rat (rat, C-terminal biotin attached via a G4S linker)
T9 construct: Synthetic peptide; also called Rat Nav1.7 3-3 C-term biotin
T9 peptide: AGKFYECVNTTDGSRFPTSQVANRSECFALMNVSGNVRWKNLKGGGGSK

T10: Native Nav1.7 (3-3) peptide, human (human)
T10 construct: Synthetic peptide, unbiotinylated; also called Human Nav1.7 3-3 native; Nav1.7 3-3 native peptide
T10 peptide: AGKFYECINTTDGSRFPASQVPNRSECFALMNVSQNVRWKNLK


Experiments:
[1] = target: T1, N-Term Biotin Nav1.7 (3-1) peptide, …; assay: ELISA on coated peptide
Description: (§1) Anti-Naᵥ 1.7 antibodies were tested for their ability to bind to the Naᵥ 1.7 peptides. The various peptides were coated overnight onto 96-well Nunc Immunosorp plates at a concentration of 4 μg/mL in PBS, followed by blocking for 1 hour in a suitable blocking agent. For biotinylated peptides, avidin was first coated on Nunc Immunosorp plates at 2 μg/mL in PBS overnight, followed by blocking as described, and the plate was then coated with biotinylated peptides at a concentration of 0.4 μg/mL and incubated for 1 hour at room temperature. Purified anti-Naᵥ 1.7 antibodies were diluted to a final concentration of 0.1 μg/mL and 1.0 μg/mL and added to the wells of the coated microtiter plates followed by incubation for 1 hour at room temperature. Bound antibodies were detected with horseradish peroxidase (HRP) conjugated anti-mouse or anti-human IgG (Jackson Immuno Research Lab, West Grove, Pa.) depending on the antibody species and developed by colorimetric response using tetramethylbenzidine (TMB) substrate (BD Biosciences). Absorbance was read at OD₄₅₀ on a plate reader for 0.1 second.
(§2) Values in Table 11 represent absolute binding ranges (at OD450) to plate-coated peptides for antibodies added at 1 μg/ml as follows: OD450<0.2: −; 0.2<OD450<1: +; 1<OD450<2: ++; 2<OD450<4: +++; NT: Not Tested.

[2] = target: T2, Native Nav1.7 (3-1) peptide, rat; assay: ELISA on coated peptide
Description: as §1, §2

[3] = target: T3, C-term Biotin Nav1.7 (3-1) peptide, …; assay: SPR, captured biotin-peptide, antibody analyte
[4] = target: T11, full-length human Nav1.7 fused at its N-terminus to GFP, expressed in HEK293 cells (human, UniProt Q15858 1-1988); assay: cell-based or functional assay
[5] = target: T11, full-length human Nav1.7 fused at its …; assay: flow cytometry; % stained hNav1.7-GFP-HEK293 minus parental HEK293
Description: The binding of anti-Naᵥ 1.7 human antibodies to full-length Naᵥ 1.7 expressed in HEK293 cells was determined by flow cytometry (FACS). HEK293 cells were stably-transfected with full-length human Nav1.7 fused at its N-terminus to the green fluorescent protein (GFP) to generate cell line hNaᵥ 1.7-GFP-HEK293. Antibody binding to the transfected cells overexpressing Naᵥ 1.7 was compared to binding to the parental HEK293 cell line. To perform the binding experiments, adherent cells were collected using 1 mM EDTA in PBS, washed and re-suspended in cold PBS containing 5% FBS. For each binding experiment, the anti-Naᵥ 1.7 antibody (at concentrations ranging from 1 nM to 13 nM), was added to 250,000 cells in 500 μL of PBS with 5% FBS. After incubation for 20 minutes on ice, the secondary antibody, recognizing either human-Fc and conjugated to cyanine 5 (Cy5) or recognizing mouse-Fc and conjugated to allophyocyanin (APC), was then added to the cell mixture at a final secondary antibody concentration of 1.7 nM. After incubating for 20 minutes on ice, the cells were resuspended in PBS+5% FBS and then sorted and analyzed on a flow cytometer to determine relative binding by the candidate antibodies. For FACS analysis, gating was applied to examine only healthy live cells in the antibody binding experiments, and percentage stained was recorded. Staining of secondary antibodies alone to Naᵥ 1.7-GFP-HEK293 cells gave low background signals (1-2%). Specific binding was measured as the percent binding to Naᵥ 1.7-GFP-HEK293 cells minus percent binding to parental HEK293 cells.

[6] = target: T4, N-Term Biotin-Nav1.7 (3-1) peptide, …; assay: ELISA on coated peptide, antibody 1 ug/ml, OD450 grade
Summary of the method: (§3)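 Binding graded from absorbance at OD450 for antibodies applied at 1 μg/ml (− below 0.2, + 0.2–1, ++ 1–2, +++ 2–4; NT not tested); antibodies were also run at 0.1 μg/mL. Biotin-peptides at 0.4 μg/mL on avidin-coated plates, other peptides at 4 μg/mL; 1 h RT binding; HRP anti-IgG/TMB detection.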

[7] = target: T5, N-Term Biotin Nav1.7 (3-1) peptide, …; assay: as above
Summary of the method: as §3

[8] = target: T6, Native Nav1.7 (3-1) peptide, human; assay: SPR, captured antibody, peptide analyte
Summary of the method: (§4)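 Peptide analytes flowed at multiple concentrations over anti-Nav1.7 antibodies held by an anti-Fc capture surface. After reference-surface and buffer-blank subtraction, a global 1:1 Langmuir fit gave ka and kd, with KD as kd/ka and dissociative half-life as ln2/kd.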

[9] = target: T5, N-Term Biotin Nav1.7 (3-1) peptide, …; assay: SPR, captured antibody, peptide analyte
Summary of the method: as §4

[10] = target: T1, N-Term Biotin Nav1.7 (3-1) peptide, …; assay: SPR, captured antibody, peptide analyte
Summary of the method: as §4

[11] = target: T2, Native Nav1.7 (3-1) peptide, rat; assay: SPR, captured antibody, peptide analyte
Summary of the method: as §4

[12] = target: T7, C-term Biotin Nav1.7 (3-3) peptide, …; assay: SPR, captured biotin-peptide, antibody analyte
[13] = target: T11, full-length human Nav1.7 fused at its …; assay: flow cytometry on Nav1.7-GFP-HEK293, antibody 3.3 nM
Description: The specificity of binding of anti-Naᵥ 1.7 human antibodies to full-length Naᵥ 1.7 expressed in HEK293 cells was determined by peptide competition experiments using flow cytometry.
HEK293 cells stably-transfected with full-length Naᵥ 1.7 fused at its N-terminus to GFP (Naᵥ 1.7-GFP-HEK293) were used for this study. Antibody binding to the transfected cells overexpressing Naᵥ 1.7 was compared to binding in the presence of excess peptide and to binding to the parental HEK293 cell line. To perform the binding experiments, adherent cells were collected using 1 mM EDTA in PBS, washed and re-suspended in cold PBS containing 5% FBS. For each binding experiment the anti-Naᵥ 1.7 antibody at a final concentration of 3.3 nM (in PBS/5% FBS) was added to cells either directly or after incubating for 10 min on ice with a 1000-fold molar excess (3.3 uM final concentration in PBS/5% FBS) of synthetic peptide with sequence corresponding to the loop specificity of the antibody. The antibodies designated as H4H391P, H4H443B, H4H448B, and H1M797N were preincubated as described above with a synthetic peptide corresponding to EC loop 3-1 (amino acid residues 269-338 of SEQ ID NO: 670), whereas the antibodies designated as H4H468P and H1 M852N were preincubated with a synthetic peptide corresponding to EC loop 3-3 (amino acid residues 1333-1382 of SEQ ID NO: 670). The antibody or antibody-peptide mixture was then allowed to incubate with cells for 20 min on ice, followed by addition of 500 uL of cold PBS/5% FBS. Cells were collected by centrifugation, resuspended in 500 uL of cold PBS/5% FBS, and then secondary antibody matched to the antibody isotype (either anti-human-Fc conjugated to Cyanine 5 or anti-mouse-Fc conjugated to allophyococyanin) was added. Binding was detected on the flow cytometry instrument and analyzed as percent binding using the instrument software. For FACS analysis appropriate gating was applied so that only healthy, live cells were counted. Background staining of secondary antibodies alone to Naᵥ 1.7-GFP-HEK293 cells was tested and recorded for all samples, and results ranged between 1-2% binding.

[14] = target: T8, C-Term Biotin Nav1.7 (3-3) peptide, …; assay: SPR, captured antibody, peptide analyte
Summary of the method: as §4

[15] = target: T9, C-Term Biotin Nav1.7 (3-3) peptide, rat; assay: SPR, captured antibody, peptide analyte
Summary of the method: as §4

[16] = target: T10, Native Nav1.7 (3-3) peptide, human; assay: SPR, captured antibody, peptide analyte
Summary of the method: as §4

OD450 [1]	Kd [3]	t1/2 [3]	Current blocking (Average % inhibition), IonWorks Quattro, 223 nM antibody [4]	% Binding Nav1.7 [5]	OD450 [6]	OD450 [7]	Kd [8]	t1/2 [8]	Kd [9]	t1/2 [9]	binding result [10]	binding result [3]	Kd [12]	t1/2 [12]	binding result [15]	Kd [16]	t1/2 [16]	Binder	further results
< 0.2 od	0.815 nM	106 min	6%	5.7%	2 to 4 od	2 to 4 od	9.93 nM	17.5 min	4.14 nM	27.4 min	no binding	–	–	–	–	–	–	H2M799N (antibody, V domains shown, Hybridoma-derived) VH: EVQLVESGGGLVQPGGSLRLSCAASGFTFSIFWMNWVRQAPGKGLEWVAKIKQDGSEKYYVDSMKGRFTISRDNVKNSLYLQMNSLRAEDTAVYYCARGVWGSYRYTSSGLDVWGQGTTVTVSS VL: not shown	OD450 [2]: < 0.2 od; binding result [11]: no binding
–	–	–	–	71.8%	–	–	–	–	–	–	–	no binding	47.2 nM	1.3 min	no binding	630 nM	0.31 min	H4H468P (antibody, V domains shown, also called REGN1064) VH: QVQLVESGGGVVQPGRSLRLSCTASGFTFSVYGIHWVRQAPGKGLEWVAVIWYDGSNKYYTDSVKGRFTISRDNSKNTLYLQMNSLRAEDTALYYCAREGDLSSSSGSGGYHYVVDVWGQGTTVTVSS VL: AIQMTQSPSSLSASVGDRVTITCRASQDIRNDLGWYQQKPGNAPKLLIYSTSSLQSGVPSRFSGSGSGTDFTLTISSLQPEDFATYYCLQDYNYPLTFGGGTKVEIK	% Binding Nav1.7 (Stable Line) [13]: 89.5%; binding result [14]: no binding
< 0.2 od	0.218 nM	101 min	25.5%	3.7%	2 to 4 od	2 to 4 od	0.612 nM	8.6 min	0.257 nM	36.1 min	no binding	–	–	–	–	–	–	H4H362B (antibody, V domains shown) VH: QVQLVESGAEVKKPGASVKVSCKASGYTFTTYGISWVRQAPGQGLEWMGWISAYNGKTNYAQKFQGRVTMTTDTSTNTAYMELRSLRFDDTAVYYCARDGGTPFYYWGQGTLVTVSS VL: not shown	–
–	–	–	–	–	–	–	–	–	–	–	–	no binding	0.138 nM	743 min	no binding	16 nM	17 min	H4H471P (antibody, V domains shown) VH: QVQLVESGGGLVKPGGSLRLSCAASGVTFSDYYMTWIRQAPGKGLEWVSYISTDGRTIYYADSVKGRFTISRDNAKNSLYLQMNNLRAEDTAVYYCARGVDSDDYEDFYSYYDMDVWGQGTTVTVSS VL: DIQMTQSPSSLSASVGDRVTITCRASQGISNYLAWFQQKPGKAPKSLIYAASSLQGGVPSRFSGSGSGTDFTLTISSLQPEDFATYYCQQYNSYPLTFGGGTKVEIK	–
